Values belong to the binder of their own block, whether it stands above or below them.
Experiments:
[1] = target: T1, surfactant protein D (human), P35247; assay: SEC; Sephadex G-200 column (1.5 x 12 cm, 20 mL), 0.05 M HNaPO4, 0.15 M NaCl, pH 7; 1.5 mg/mL protein loaded, 12 x 1 mL fractions, isocratic; protein in fractions by Bradford assay and slot blot with anti-SPD and anti-MAA; details: remark: other sources report otherwise
T1 chain: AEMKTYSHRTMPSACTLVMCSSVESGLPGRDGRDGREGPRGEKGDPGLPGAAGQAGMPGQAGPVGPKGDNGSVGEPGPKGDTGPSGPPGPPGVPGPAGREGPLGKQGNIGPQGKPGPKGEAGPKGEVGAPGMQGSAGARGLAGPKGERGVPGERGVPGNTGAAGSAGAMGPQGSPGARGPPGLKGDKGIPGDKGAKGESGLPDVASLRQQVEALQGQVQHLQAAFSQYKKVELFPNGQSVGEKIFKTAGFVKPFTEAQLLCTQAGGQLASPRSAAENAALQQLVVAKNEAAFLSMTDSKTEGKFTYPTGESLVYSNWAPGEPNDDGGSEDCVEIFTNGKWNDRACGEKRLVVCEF

[2] = target: T2, MAA-adducted surfactant protein D (human), P35247; assay: as above; details: remark: other sources report otherwise
T2 chain: T1 chain

stoichiometry N [1]: 3
B1: surfactant protein D, P35247 21-375 (natural protein)
chain: T1 chain

stoichiometry N [2]: 3
B2: MAA-adducted surfactant protein D, P35247 21-375 (natural protein)
chain: T1 chain
modifications: here or on the partner: malondialdehyde-acetaldehyde (MAA) adducts; MAA adduction occurs primarily on lysine residues; positions not given; malondialdehyde-acetaldehyde (MAA) adducts; MAA adduction occurs primarily on lysine residues; positions not given

— article PMC9164268
